Residue numbers refer to the chain shown, from its start.
Key:
[1] = molecular target: human GPR87 (G protein-coupled receptor 87), endogenously expressed in Me180 cells (human); assay: flow cytometry, Me180 cells transfected with control siRNA, antibody at 10 µg/mL (no primary antibody: 10.71)
[2] = molecular target: full-length human GPR87 with an N-terminal FLAG tag, stably expressed on CHO cells (human); assay: flow cytometry, hGPR87 stable expression CHO cell line, antibody at 0.01 µg/mL (no primary antibody: 18.36)
Chain of full-length human GPR87 with an N-terminal FLAG tag, stably expressed on CHO cells (human) (chain, as listed by the source): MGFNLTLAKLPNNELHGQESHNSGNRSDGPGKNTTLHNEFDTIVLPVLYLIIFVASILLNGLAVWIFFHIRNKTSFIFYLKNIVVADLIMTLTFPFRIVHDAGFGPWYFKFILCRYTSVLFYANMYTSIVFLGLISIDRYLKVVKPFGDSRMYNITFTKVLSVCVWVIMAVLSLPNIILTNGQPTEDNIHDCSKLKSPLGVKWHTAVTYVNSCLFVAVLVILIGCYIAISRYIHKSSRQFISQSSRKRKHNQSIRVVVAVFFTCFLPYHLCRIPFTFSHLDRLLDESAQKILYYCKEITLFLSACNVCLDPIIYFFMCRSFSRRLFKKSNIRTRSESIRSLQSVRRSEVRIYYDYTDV

[3] = molecular target: human GPR87 (G protein-coupled receptor 87), endogenously expressed in Me180 cells (human); assay: flow cytometry, Me180 cells transfected with siRNA against GPR87 (expression suppressed to 5.9% at the RNA level), antibody at 1 µg/mL (no primary antibody: 10.16)
[4] = molecular target: human GPR87 (G protein-coupled receptor 87), endogenously expressed in Me180 cells (human); assay: flow cytometry, Me180 cells transfected with siRNA against GPR87 (expression suppressed to 5.9% at the RNA level), antibody at 10 µg/mL (no primary antibody: 10.16)
[5] = molecular target: human GPR87 (G protein-coupled receptor 87), endogenously expressed in Me180 cells (human); assay: flow cytometry, Me180 cells transfected with control siRNA, antibody at 0.1 µg/mL (no primary antibody: 10.71)
[6] = molecular target: human GPR87 (G protein-coupled receptor 87), endogenously expressed in Me180 cells (human); assay: flow cytometry, Me180 cells transfected with control siRNA, antibody at 1 µg/mL (no primary antibody: 10.71)
[7] = molecular target: full-length human GPR87 with an N-terminal FLAG tag, stably expressed on CHO cells (human); assay: flow cytometry, hGPR87 stable expression CHO cell line, antibody at 1 µg/mL (no primary antibody: 18.36)
[8] = molecular target: human GPR87 (G protein-coupled receptor 87), endogenously expressed in Me180 cells (human); assay: flow cytometry, Me180 cells transfected with siRNA against GPR87 (expression suppressed to 5.9% at the RNA level), antibody at 0.1 µg/mL (no primary antibody: 10.16)
[9] = molecular target: full-length human GPR87 with an N-terminal FLAG tag, stably expressed on CHO cells (human); assay: flow cytometry, hGPR87 stable expression CHO cell line, antibody at 10 µg/mL (no primary antibody: 18.36)
[10] = molecular target: full-length human GPR87 with an N-terminal FLAG tag, stably expressed on CHO cells (human); assay: flow cytometry, hGPR87 stable expression CHO cell line, antibody at 0.1 µg/mL (no primary antibody: 18.36)

Chain of human GPR87 (G protein-coupled receptor 87), endogenously expressed in Me180 cells (human) (chain, as listed by the source): as above

B1: C0804 antibody (antibody, V domains shown)
VH: QIQLVQSGPELKKPGETVKISCKVSGYTFTDYSMHWVKQAPGKGLKWMAWINTETGKPTYADDFKGRFAFSLEASASTAYLQINNLKNEDTATYFCASLDYWGQGTTLTVSS
VL: DVLMTQTPLSLPVSLGDQASISCRSSQNVVHSSGNTYLEWFLQKPGQSPKLLIYKVSTRFSGVPDRFSGSGSGTDFTLKISRVEAEDLGVYYCFQGSHVPYTFGGGTKLEIKR
With B1 the geometric mean of the fluorescence intensity [1] was 63.5, the geometric mean of the fluorescence intensity [2] was 28.9 and the geometric mean of the fluorescence intensity [3] was 12.9. For the same binder, the geometric mean of the fluorescence intensity [4] was 20.6, the geometric mean of the fluorescence intensity [5] was 12.9 and the geometric mean of the fluorescence intensity [6] was 24.6. The geometric mean of the fluorescence intensity [7] was 578, the geometric mean of the fluorescence intensity [8] was 10.3 and the geometric mean of the fluorescence intensity [9] was 1240. For the same binder, the geometric mean of the fluorescence intensity [10] was 110.

B2: C0815 antibody (antibody, V domains shown)
VH: B1 VH with K13N, A74T, N85T
VL: B1 VL with T58N
B2 showed a geometric mean of the fluorescence intensity [1] of 60.5, a geometric mean of the fluorescence intensity [2] of 26.9 and a geometric mean of the fluorescence intensity [3] of 13.6. The geometric mean of the fluorescence intensity [4] was 22.4, the geometric mean of the fluorescence intensity [5] was 13.3 and the geometric mean of the fluorescence intensity [6] was 28.8. For the same binder, the geometric mean of the fluorescence intensity [7] was 496, the geometric mean of the fluorescence intensity [8] was 10.1 and the geometric mean of the fluorescence intensity [9] was 1290. For the same binder, the geometric mean of the fluorescence intensity [10] was 91.6.

— US20120003149A1
